Test results taken from patent publication US20140056907A1 (Regeneron, published 2014).
Blank lines part the entries; values can stand above or below the binder they belong to.

Target: T1, mouse ASIC1a (mouse, UniProt Q6NXK8 1-526)
T1 construct: whole, on cells; Expressed on stably transfected 3T3 cells (3T3/mASIC1a); also called mASIC1a
T1 sequence (looked up): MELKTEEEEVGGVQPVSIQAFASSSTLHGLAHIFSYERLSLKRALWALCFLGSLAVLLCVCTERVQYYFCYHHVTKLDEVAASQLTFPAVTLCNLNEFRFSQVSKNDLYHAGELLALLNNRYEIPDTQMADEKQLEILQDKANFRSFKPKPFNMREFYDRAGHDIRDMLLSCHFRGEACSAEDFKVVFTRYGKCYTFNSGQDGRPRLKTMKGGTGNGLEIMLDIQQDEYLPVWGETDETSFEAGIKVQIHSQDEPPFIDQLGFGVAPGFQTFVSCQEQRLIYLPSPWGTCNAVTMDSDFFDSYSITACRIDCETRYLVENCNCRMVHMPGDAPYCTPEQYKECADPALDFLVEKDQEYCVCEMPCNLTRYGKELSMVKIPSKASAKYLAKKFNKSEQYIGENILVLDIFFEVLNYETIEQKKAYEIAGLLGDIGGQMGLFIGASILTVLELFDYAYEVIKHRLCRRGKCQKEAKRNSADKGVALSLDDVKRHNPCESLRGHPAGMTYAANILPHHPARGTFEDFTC
Assay: FACS, 3T3/mASIC1a cells
Text: To further characterize anti-ASIC1 antibodies, their ability to bind either (a) a mouse fibroblast 3T3 cell line stably transfected to overexpress full length human ASIC1 (3T3/hASIC1; amino acids 1-528 of NCBI accession number NP_{—}001086.2 [SEQ ID NO:401]), (b) a 3T3 cell line stably transfected to over express full length mouse ASIC1a (3T3/mASIC1a; amino acids 1-526 of NCBI accession number NP_{—}033727), or (c) a ND7 cell line (ECACC, #92090903) that is a fusion cell line of mouse neuroblastoma and rat dorsal root ganglia that endogenously expresses rat ASIC1, was determined using flow cytometry (FACS). ND7 cells were differentiated by replacing the culture media with low-serum media (0.5% FBS) containing 1 mM dibutyryl-cAMP (Cat. No. sc-201567A, Santa Cruz Biotechnology, Inc., Santa Cruz, Calif.). FACS binding was tested for some antibodies on both undifferentiated ND7 cells and differentiated ND7 cells.
To perform the FACS binding experiments, adherent cells were collected using 1 mM EDTA in PBS, then washed, and re-suspended in cold PBS containing 5% FBS. For each binding experiment, each anti-ASIC1 antibody (at final concentrations of 10 nM of purified antibodies or 3.3 nM for antibody supernatants for binding to 3T3/hASIC1 cells and 5 nM for binding to 3T3/mASIC1a or ND7 cells) was added to 250,000 cells in 500 μL of PBS with 5% FBS. After incubation for 20 minutes at room temperature, a secondary antibody which recognizes human Fc (Cat. No. 109-136-098, Jackson ImmunoResearch Laboratories, Inc., West Grove, Pa.) or mouse Fc (Cat. No. 550826, BD Biosciences, San Jose, Calif.) and is conjugated to allophycocyanin, was then added to the cell mixture at a final concentration of 13.3 nM. After incubating for 20 minutes on ice, the cells were washed and resuspended in PBS containing 5% FBS, then sorted and analyzed on a flow cytometer (FACSCalibur, BD Biosciences, San Jose, Calif.) to determine relative binding by the candidate antibodies to the tested cell lines. Histograms of cells stained with anti-ASIC1 antibodies were compared with those of cells stained with secondary antibody alone. Percentage of ASIC1 signal over secondary antibody alone was calculated using FlowJo software (Tree Star, Ashland, Oreg.).

binding result: binds
B1: H3M7102N (antibody, V domains shown)
VH: EVQLLASGGGLVQPGGSLRLSCAASGFTFSSFAMSWVRQAPGKGLEWVSGISGSGGSTYYADSVKGRFTISRDNSKNTLYLQMNSLRAEDTAAYYCAKEAYKWQPWGQGIRVTVSS
VL: DIQMTQSPSTLSASVGDRVSITCRASQSISSWLAWYQQKPGKAPKLLIYKASNLDSGVPSRFSGSGSGTDFTLTISSLQPDDFATYYCQQYNSYSYTFGQGTKLEIK
notes: Chimeric: human variable, mouse constant domains; H3M prefix marks the Fc, isotype not spelled out

binding result: binds
B2: H3M6726N (antibody, V domains shown)
VH: EVQLLESGGVLVQPGGSLRLSCAASGFNFNNYDMSWVRQAPGKGLEWVSVISASGRNTYYADSVKGRFTISRDNSKISLYLQMNSLRPEDTAVYYCAKDHLVHYYYGMDVWGQGTTVTVSS
VL: DIMMTQSPLSLSVTPGEPASISCRSSQSLLHSNGYNYLDWYLQKSGQSPHLLIYLGSNRASGVPDRFSGSGSGTDFTLKISRVEAEDGGVYYCMQALQTPRTFGQGTKVEIK
notes: as for B1
